Test results published in US6964763.

Legend:
[1] = target: CSVTCG peptide derived from TSP1 properdin-like Type 1 repeat; assay: solid phase binding, 125I-gp120 on immobilized peptide, saturation isotherms
[2] = target: CHO cell-expressed soluble recombinant CD4 (UniProt P01730); assay: competition: 125I-CD4 on immobilized gp120 (MN and LAI), 10-fold molar excess of fusion protein
[3] = target: Recombinant baculovirus-expressed HIV-1 gp120 derived from the MN isolate (HIV-1 isolate MN) (UniProt P05877); assay: competition: 125I-CD4 on immobilized gp120, 10-fold molar excess of peptide; isolate (MN or LAI) not stated
[4] = target: Recombinant baculovirus-expressed HIV-1 gp120 derived from the LAV isolate (HIV-1 isolate LAV (LAI)) (UniProt P03377); assay: as above

Substance	% inhibition [2] [%]	% inhibition [3] [%]	also measured
Recombinant baculovirus-expressed HIV-1 gp120 derived from the LAV isolate (from UniProt P03377 33-516)			Kd [1]: 300 nM
GST/LIMPII fusion protein LFP75-155 (from UniProt Q14108 75-155)	89		
CSVTCG peptide derived from TSP1 properdin-like Type 1 repeat		53	
GST/LIMPII fusion protein LFP156-243 (from UniProt Q14108 156-243)	32		
GRGDS peptide derived from TSP1 calcium binding Type 3 repeat		4	% inhibition [4]: 4%
GST/CD36 fusion protein CFP67-157 (from UniProt P16671 67-157)	89		
